Experiments:
human SIRPγ isoform 1 [1] = molecular target: T1, human SIRPγ isoform 1 (human, UniProt Q9P1W8 29-147); test: SPR
T1 construct: also called SIRPg; sirpg
How it was run: (§1)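 scFv-Fc antibody clones were captured from pre-filtered culture media onto anti-human IgG Fc, amine-coupled at about 4000 RU on a GLC chip in a ProteOn XPR36 instrument. SIRP analytes were passed over in PBS pH 7.4 with 0.01% Tween-20 at 25° C, and responses were double-referenced against interspot and buffer-blank signals. Curves were fitted to a 1:1 Langmuir model. Dissociation rate constants (koff) were taken from those fits.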

[2] = molecular target: T2, C57BL/6 mouse SIRP-α D1 domain (mouse (C57BL/6 strain), UniProt P97797 32-148); test: SPR
T2 sequence: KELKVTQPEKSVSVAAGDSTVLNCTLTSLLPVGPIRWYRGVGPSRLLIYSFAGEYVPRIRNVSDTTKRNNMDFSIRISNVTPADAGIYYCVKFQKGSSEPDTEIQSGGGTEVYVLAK
How it was run: as §1

[3] = molecular target: T3, mouse 129 SIRP-α D1 domain (mouse (129 strain), UniProt P97797 32-150); test: SPR
T3 construct: also called m129
T3 chain: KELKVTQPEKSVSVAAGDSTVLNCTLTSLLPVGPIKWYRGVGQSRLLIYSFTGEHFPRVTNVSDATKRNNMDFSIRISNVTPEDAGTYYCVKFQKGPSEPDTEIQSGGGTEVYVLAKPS
How it was run: as §1

[4] = molecular target: T4, cynomolgus SIRP-α D1 domain (cyno1) (cynomolgus monkey, UniProt Q5TFQ8 30-148 (human entry), limits assumed); test: SPR
T4 chain: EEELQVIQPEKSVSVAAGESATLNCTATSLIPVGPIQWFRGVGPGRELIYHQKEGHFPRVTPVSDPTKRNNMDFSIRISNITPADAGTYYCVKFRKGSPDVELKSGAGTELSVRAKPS
How it was run: as §1

human SIRPβ isoform 1 [5] = molecular target: T5, human SIRPβ isoform 1 (human, UniProt O00241 30-148); test: SPR
T5 construct: also called SIRPb; sirpb1
How it was run: as §1

[6] = molecular target: T6, human SIRP-α v1 D1 domain (human, UniProt P78324 31-149); test: SPR, Langmuir fit
T6 construct: also called human v1
How it was run: as §1

[7] = molecular target: T7, high affinity SIRP-α D1 variant CV1-3; test: SPR, Langmuir fit
T7 chain: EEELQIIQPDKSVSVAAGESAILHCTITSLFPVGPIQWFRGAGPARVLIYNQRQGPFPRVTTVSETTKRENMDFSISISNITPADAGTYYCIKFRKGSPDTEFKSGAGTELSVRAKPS
How it was run: as §1

[8] = molecular target: T8, human SIRP-α v2 D1 domain (human); test: SPR, Langmuir fit
T8 construct: also called human v2
How it was run: as §1

human SIRPβ isoform 1 [9] = molecular target: T5, human SIRPβ isoform 1; test: SPR, Langmuir fit
How it was run: as §1

[10] = molecular target: T9, NOD mouse SIRP-α D1 domain (mouse (NOD strain)); test: SPR
T9 chain: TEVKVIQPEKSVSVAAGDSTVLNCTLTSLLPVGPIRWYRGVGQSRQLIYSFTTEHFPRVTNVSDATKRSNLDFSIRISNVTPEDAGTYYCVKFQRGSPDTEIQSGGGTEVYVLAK
How it was run: as §1

human SIRPγ isoform 1 [11] = molecular target: T1, human SIRPγ isoform 1; test: SPR, Langmuir fit
How it was run: as §1

[12] = molecular target: T10, cynomolgus SIRP-α D1 domain (cyno2) (cynomolgus monkey, UniProt Q5TFQ8 30-148 (human entry), limits assumed); test: SPR, Langmuir fit
T10 chain: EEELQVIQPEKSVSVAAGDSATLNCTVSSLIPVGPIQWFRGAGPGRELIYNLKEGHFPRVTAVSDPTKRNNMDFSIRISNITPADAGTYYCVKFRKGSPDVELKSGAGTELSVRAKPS
How it was run: as §1

[13] = molecular target: T4, cynomolgus SIRP-α D1 domain (cyno1); test: SPR, Langmuir fit
How it was run: as §1

T1 sequence (Q9P1W8 29-147 limits assumed): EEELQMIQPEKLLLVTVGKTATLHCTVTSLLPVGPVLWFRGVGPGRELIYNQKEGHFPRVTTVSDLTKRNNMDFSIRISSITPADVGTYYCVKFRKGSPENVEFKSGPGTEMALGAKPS
T6 sequence (P78324 31-149 limits assumed): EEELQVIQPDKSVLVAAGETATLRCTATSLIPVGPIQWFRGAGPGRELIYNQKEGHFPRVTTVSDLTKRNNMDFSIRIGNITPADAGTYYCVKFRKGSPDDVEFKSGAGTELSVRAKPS
T8 sequence (chain, as listed by the source limits assumed): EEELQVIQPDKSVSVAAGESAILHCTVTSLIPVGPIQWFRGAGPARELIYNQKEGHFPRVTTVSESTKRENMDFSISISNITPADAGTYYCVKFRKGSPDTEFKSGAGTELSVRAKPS
T5 sequence (O00241 30-148 limits assumed): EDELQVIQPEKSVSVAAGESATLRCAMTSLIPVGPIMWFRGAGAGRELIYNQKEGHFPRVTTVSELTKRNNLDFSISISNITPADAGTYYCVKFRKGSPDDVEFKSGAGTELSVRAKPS

B1: S173 (scFv, V domains shown)
VH: DVQLVESGGGVVRPGESLRLSCAASGFAFSDHDMSWVRQGPGEGLEWVAGISLRGGVTWYADSVKGRFTISRDNSKNTLYLRLFSLRTEDTAIYYCARESWNTFFDYWGLGTLVTVSS
VL: EIVLTQSPGTLSLSPGETATLSCRASQNVRSNLAWYQQKPGQAPRLLIYDASSRATGIPDRFSGSGSGTDFTLTISSLQSEDFAVYYCQQYGNGPPLTFGGGTKVEIK
binding result (human SIRPγ isoform 1 [1]): no binding (tested: Koff > 5 × 10^3 (legend)) | binding result [2]: no binding (tested: Koff > 5 × 10^3 (legend)) | binding result [3]: no binding (tested: Koff > 5 × 10^3 (legend)) | binding result [4]: no binding (tested: Koff > 5 × 10^3 (legend)) | binding result (human SIRPβ isoform 1 [5]): no binding (tested: Koff > 5 × 10^3 (legend)) | koff [6]: 0.00112 s⁻¹ | koff [7]: 0.00137 s⁻¹ | koff [8]: 0.00504 s⁻¹

B2: S174 (scFv, V domains shown)
VH: DVQLVESGGGVVRPGESLRLSCAASGFTFSDHDMSWVRQGPGEGLEWVAGISLRGGVTWYADSVKGRFTISRDNSKNTLYLRLFSLRTEDTAIYYCARESWNTFFDYWGLGTLVTVSS
VL: EIVLTQSPGTLSLSPGETATLSCRASQNVRSNLAWYQQKPGQAPRLLIYDASSRATGIPDRFSGSGSGTDFTLTISSLQSEDFAVYYCQQYGNGPPLTFGGGTKVEIK
binding result (human SIRPγ isoform 1 [1]): no binding (tested: Koff > 5 × 10^3 (legend)) | binding result [2]: no binding (tested: Koff > 5 × 10^3 (legend)) | binding result [3]: no binding (tested: Koff > 5 × 10^3 (legend)) | binding result [4]: no binding (tested: Koff > 5 × 10^3 (legend)) | binding result (human SIRPβ isoform 1 [5]): no binding (tested: Koff > 5 × 10^3 (legend)) | koff [6]: 0.00143 s⁻¹ | koff [7]: 0.00189 s⁻¹ | koff [8]: 0.00399 s⁻¹

B3: S209 (scFv, V domains shown)
VH: DVQLVESGGAVVRPGESLRLSCKASGFTFTNFAMSWVRQAPGEGLEWVSGISGSDDTTYYADSVKGRFTISRDNSESTLYLQMNSLRAEDTAVYYCVKDSTVSWNTFFDYWGLGTLVTVSS
VL: ALTQPASVSANLGGTVKITCSGGYGSDDGSSSYYGWYQQKSPGSAPVILIYWDDKRPSDIPSRFSGSTSGSTTTLTITGVQAEDEAVYFCGTYDTSSGAIFGAGTTLTVL
binding result (human SIRPγ isoform 1 [1]): no binding (tested: Koff > 5 × 10^3 (legend)) | binding result [2]: no binding (tested: Koff > 5 × 10^3 (legend)) | binding result [4]: no binding (tested: Koff > 5 × 10^3 (legend)) | koff [6]: 0.000659 s⁻¹ | koff [7]: 0.00245 s⁻¹ | koff [8]: 0.00401 s⁻¹ | koff (human SIRPβ isoform 1 [9]): 6.54e-05 s⁻¹

B4: S132 (scFv, V domains shown)
VH: DVQLVESGGGVVRPGESLRLSCAASGFSFRSYAMNWVRQAPGEGLEWVSRINSGGGGTDYADSVKGRFTISRDNSKNTLYLQMNSLRAEDTAVYYCAKQYDWNSFFDYWGLGALVTVSS
VL: ETVLTQSPATLSVSPGERATLSCRASQTVGSKLAWHQQKPGQAPRLLIYDASNRATGIPDRFSGSGSGTDFTLTISSPQTEDSAVYYCQQYYYWPPYRFGGGTKVEIK
binding result [10]: no binding (tested: Koff > 5 × 10^3 (legend)) | binding result [2]: no binding (tested: Koff > 5 × 10^3 (legend)) | binding result [3]: no binding (tested: Koff > 5 × 10^3 (legend)) | koff [6]: 3.34e-05 s⁻¹ | koff (human SIRPγ isoform 1 [11]): 1.05e-05 s⁻¹ | koff [7]: 7.95e-05 s⁻¹ | koff [12]: 7.12e-05 s⁻¹ | koff [8]: 2.06e-05 s⁻¹ | koff [13]: 4.28e-05 s⁻¹ | koff (human SIRPβ isoform 1 [9]): 1.01e-05 s⁻¹
